From article PMC6107515, “Factor H binding proteins protect division septa on encapsulated Streptococcus pneumoniae against complement C3b deposition and amplification” (Nature Communications, 2018)

Columns and labels:
[1] = biological target: T1, human complement Factor H (human, UniProt P08603 19-1231); experiment: SPR; Biacore X100; FH coupled to a CM4 chip, recombinant PspCs injected at five increasing concentrations (kinetic titration); PBS-P+ buffer; fitted with a 1:1 binding model; details: both partners purified
T1 construct: complement factor H, human, purified; also called FH

[2] = biological target: T1, human complement Factor H; experiment: as above; details: both partners purified; remark: listed apart in the source

T1 sequence (P08603 19-1231): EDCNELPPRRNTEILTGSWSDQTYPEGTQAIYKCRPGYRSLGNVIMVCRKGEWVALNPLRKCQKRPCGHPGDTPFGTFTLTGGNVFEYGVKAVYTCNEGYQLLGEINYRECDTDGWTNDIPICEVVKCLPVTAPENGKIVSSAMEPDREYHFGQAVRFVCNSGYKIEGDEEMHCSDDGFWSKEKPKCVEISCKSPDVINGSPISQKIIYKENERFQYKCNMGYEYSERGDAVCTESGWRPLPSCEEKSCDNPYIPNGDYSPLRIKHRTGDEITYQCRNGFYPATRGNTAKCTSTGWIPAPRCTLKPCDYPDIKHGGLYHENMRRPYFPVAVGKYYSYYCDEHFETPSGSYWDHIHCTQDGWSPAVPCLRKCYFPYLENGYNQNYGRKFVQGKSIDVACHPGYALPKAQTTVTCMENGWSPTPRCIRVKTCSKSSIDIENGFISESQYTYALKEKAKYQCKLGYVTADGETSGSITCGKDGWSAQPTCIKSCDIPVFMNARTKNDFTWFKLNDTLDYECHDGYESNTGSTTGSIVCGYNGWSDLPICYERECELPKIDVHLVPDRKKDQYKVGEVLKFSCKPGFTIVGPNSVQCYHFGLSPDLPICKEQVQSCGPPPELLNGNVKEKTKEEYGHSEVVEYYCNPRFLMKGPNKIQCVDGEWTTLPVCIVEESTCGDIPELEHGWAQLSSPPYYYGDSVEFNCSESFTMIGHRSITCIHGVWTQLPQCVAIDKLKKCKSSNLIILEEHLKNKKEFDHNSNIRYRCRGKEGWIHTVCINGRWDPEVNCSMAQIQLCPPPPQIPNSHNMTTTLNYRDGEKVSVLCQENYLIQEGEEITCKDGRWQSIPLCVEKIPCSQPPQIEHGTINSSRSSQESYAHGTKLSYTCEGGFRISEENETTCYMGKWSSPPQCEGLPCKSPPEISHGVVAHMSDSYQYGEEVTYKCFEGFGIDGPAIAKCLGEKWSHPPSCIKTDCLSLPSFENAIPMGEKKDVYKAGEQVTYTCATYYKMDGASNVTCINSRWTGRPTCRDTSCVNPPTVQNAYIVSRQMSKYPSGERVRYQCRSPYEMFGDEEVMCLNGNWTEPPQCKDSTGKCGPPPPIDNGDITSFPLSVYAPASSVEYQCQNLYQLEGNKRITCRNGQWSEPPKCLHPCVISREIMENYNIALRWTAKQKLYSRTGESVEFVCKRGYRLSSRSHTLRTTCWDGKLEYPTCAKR

B1: recombinant PspC1 (BHN418) (domain or fragment)
chain: EEVGGRNTPTVTSSGQDISKKYADEVESHLKKILSEIQTQLDRKRHTKTVALINELQDIKKTYLYNLNVLKEKSELPSKIKAKLEVAFDQFKKDTLKPGEKVAEAEKKVAEAKKKAEDQKEEDRRNYPTNTYKTLELEIAESDVKVKEAELELVNEEAKPGNEEKIKKAKAKVESEKAEAIRLEEIKTDREEAKRKADAKLKEAVENNAATSEQGEPKRRVKRGVLGEPATPDKKENDAKSSDSSVGEETLPSPSLKPEKKVAEAEKKAKDQKEEDRRNYPTNTYKTLELEIAESDVKVKEAELELVKEEAKESRNEEKVKQAKAKVESKKAEATRLEKIKTDRKKAEEAKRKAAEEDKVKEKPAEQPQPAPAPQPEKPAPKPEKPAPAPKPENPAEQPKAEKPADQQAEEDYARRSEEEYNRLTQQQPPKTEKPAQPSTPKTGWKQENGMWYFYNTDGSMA
Kd [1]: 0.0908 nM | Kd [2]: 0.09 nM | koff [2]: 6.2e-05 s⁻¹ | kon [2]: 690000 M⁻¹ s⁻¹

B2: recombinant PspC2 (BHN418) (domain or fragment)
chain: TEKEGSTQAATSFNRGNGSQAEQRGELDLERDKAMKAVSEYVGKMVRDAYVKSDRKRHKNTVALVNQLGNIKNRYLNEIVHSTSKSQLQELMMKSQSEVDEAVSKFEKDSFSSSSSGSSTKPETPQPENPEHQKPTTPSPDTKPSPQPEGKKPSVPDINQEKEKAKLAVVTYMSKILDDIQKHHLQKEKHRQIVALIKELDELKKQALSEIDNVNTKVEIENTVHKIFADMDAVVTKFKKGLTQDTPKEPGNKKPSAPKPGMQPSPQPEVKPQLEKPKPEVKPQPEKPKPEVKPQPEKPKPEVKPQPEKPKPEVKPQPEKPKPEVKPQPEKPKPEVKPQPEKPKPEVKPQPEKPKPEVKPQPEKPKPEVKPQPEKPKPEVKPQPEKPKPEVKPQPEKPKPEVKPQPEKPKPEVKPQPEKPKPEVKPQPEKPKPEVKPQPEKPKPEVKPQPEKPKPEVKPQPEKPKPEVKPQPEKPKPEVKPQPEKPKPDNSKPQADDKKPSTTNNLSKDKQPSNQASTNEKATNKPKK
notes: PspC2 of Streptococcus pneumoniae BHN418, lacking the LPxTG motif and the first 37 aa (signal peptide); whole precursor given in Supplementary Data 1; cloned NdeI/XhoI in pET28a; source: E. coli Rosetta (DE3), purified (Ni-NTA, thrombin, Ni-NTA, Superdex 75); not shown: 6xHis, N-terminal, cleaved
Kd [2]: 0.013 nM | koff [2]: 5.5e-05 s⁻¹ | kon [2]: 4.1e+06 M⁻¹ s⁻¹
